# Measured values taken from patent US12121554B2 (priority 2018, dated 2024).
# Key:
# CD8 CAR T cells = format: cell-based, murine
# [1] = system: CD19-specific CAR T cells; format: cell-based; settings: recombinant murine IFNβ in IL2
# Experimental: FIGS. 8A-8D. CD19 CAR T cells treated with IFNβ in vitro. EGFRvIII-specific CAR T cells (with the scFv 139) and CD19-specific CAR T cells (with the scFv FMC63) were cultured in IL2 in the absence or presence of recombinant murine IFNβ, and CAR expression on the surface was measured using Biotin-Protein L and recognized with streptavidin-PE (Protein L+SA PE). Representative staining is shown in FIG. 8A, and the mean of three technical replicates was quantified in FIG. 8B. FIG. 8C: Representative expression of the activation markers CD25 and CD69 were shown for CAR T cells cultured as in FIG. 8A. FIG. 8D: Inhibitory receptor expression (PD1, LAG3, and TIM3) was quantified on CD8 CAR T or UTD cells cultured as in FIG. 8A. Average expression of three technical replicates is shown.
molecule,measurement,setting,value
"recombinant IFNβ: recombinant murine interferon β added to CAR T cell cultures (protein, UniProt P01575 22-182, looked up) Interferon beta: INYKQLQLQERTNIRKCQELLEQLNGKINLTYRADFKIPMEMTEKMQKSYTAFAIQEMLQNVFLVFRNNFSSTGWNETIVVRLLDELHQQTVFLKTVLEEKQEERLTWEMSSTALHLKSYYWRVQRYLKLMKYNSYAWMVVRAEIFRNFLIIRRLTRNFQN",CAR expression on the surface of transduced CD8 T cells,CD8 CAR T cells,dose-dependent increase was observed in CAR expression
same,"expression of the exhaustion markers Lag3, PD1, and Tim 3",CD8 CAR T cells,"dose dependent increase in expression of the exhaustion markers Lag3, PD1, and Tim 3"
same,proportion of AnnexinV positive apoptotic cells,CD8 CAR T cells,dose-dependent increase in the proportion of AnnexinV positive apoptotic cells
same,"proportion of triple positive cells (Lag3, PD1, Tim3)",CD8 CAR T cells,"dramatically increased by IFNβ between 0 and 1 ng/mL, and plateaued at higher doses"
same,CAR expression on the surface of CD19-specific CAR T cells,[1],promoted higher expression levels of the CAR molecule
same,"activation phenotype (CD25, CD69) of CD19-specific CAR T cells",[1],supported an activated phenotype
same,inhibitory receptor expression of CD19-specific CAR T cells over untransduced cells,[1],not associated with increased levels of inhibitory receptor expression
